Assay results taken from patent publication US20240417484A1, “ANTIGEN-BINDING POLYPEPTIDES AGAINST CD73” (UNIVERSITÄTSKLINIKUM HAMBURG-EPPENDORF, priority 2021, published 2024).

T1: human CD73 on cells (CD73-transfected HEK cells; native on PBMCs; OCI-AML3 cells) (human, UniProt P21589 27-549)
T1 construct: also called NT5E; gene ID 4907
T1 sequence: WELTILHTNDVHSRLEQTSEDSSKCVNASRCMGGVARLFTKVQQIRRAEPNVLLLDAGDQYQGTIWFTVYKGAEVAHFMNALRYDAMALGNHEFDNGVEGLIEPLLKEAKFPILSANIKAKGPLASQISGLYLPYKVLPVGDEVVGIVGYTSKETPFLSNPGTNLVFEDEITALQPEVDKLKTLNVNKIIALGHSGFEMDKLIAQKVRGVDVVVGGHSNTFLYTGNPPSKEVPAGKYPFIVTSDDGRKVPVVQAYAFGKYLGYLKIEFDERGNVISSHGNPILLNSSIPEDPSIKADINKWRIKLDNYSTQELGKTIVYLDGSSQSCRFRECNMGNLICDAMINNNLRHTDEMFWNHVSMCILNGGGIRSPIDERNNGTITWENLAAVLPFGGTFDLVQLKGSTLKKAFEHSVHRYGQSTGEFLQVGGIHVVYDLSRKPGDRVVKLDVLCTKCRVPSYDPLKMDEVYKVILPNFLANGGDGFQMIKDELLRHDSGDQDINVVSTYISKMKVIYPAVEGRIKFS

T2: recombinant human CD73 ectodomain (aa 27-549) with C-terminal His6x tag (human, UniProt P21589 27-549)
T2 construct: also called soluble recombinant human CD73; soluble human CD73
T2 sequence: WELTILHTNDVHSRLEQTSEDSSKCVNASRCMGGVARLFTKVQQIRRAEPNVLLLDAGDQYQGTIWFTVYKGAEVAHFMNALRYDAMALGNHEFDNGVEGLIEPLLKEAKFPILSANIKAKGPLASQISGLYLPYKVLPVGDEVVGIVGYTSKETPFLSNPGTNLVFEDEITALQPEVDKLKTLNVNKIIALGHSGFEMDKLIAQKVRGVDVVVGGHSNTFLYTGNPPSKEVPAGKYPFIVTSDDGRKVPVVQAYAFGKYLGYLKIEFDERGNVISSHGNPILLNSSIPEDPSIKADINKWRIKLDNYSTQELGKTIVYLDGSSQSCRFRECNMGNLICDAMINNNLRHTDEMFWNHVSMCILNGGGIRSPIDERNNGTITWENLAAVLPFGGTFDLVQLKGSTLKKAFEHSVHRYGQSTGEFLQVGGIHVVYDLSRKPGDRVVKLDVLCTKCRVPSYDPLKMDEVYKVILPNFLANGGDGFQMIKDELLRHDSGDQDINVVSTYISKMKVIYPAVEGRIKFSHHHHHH

T3: mouse CD73 on transfected HEK cells (mouse, UniProt Q61503 29-551)
T3 construct: whole, on cells; also called murine CD73; gene ID 23959
T3 sequence (looked up): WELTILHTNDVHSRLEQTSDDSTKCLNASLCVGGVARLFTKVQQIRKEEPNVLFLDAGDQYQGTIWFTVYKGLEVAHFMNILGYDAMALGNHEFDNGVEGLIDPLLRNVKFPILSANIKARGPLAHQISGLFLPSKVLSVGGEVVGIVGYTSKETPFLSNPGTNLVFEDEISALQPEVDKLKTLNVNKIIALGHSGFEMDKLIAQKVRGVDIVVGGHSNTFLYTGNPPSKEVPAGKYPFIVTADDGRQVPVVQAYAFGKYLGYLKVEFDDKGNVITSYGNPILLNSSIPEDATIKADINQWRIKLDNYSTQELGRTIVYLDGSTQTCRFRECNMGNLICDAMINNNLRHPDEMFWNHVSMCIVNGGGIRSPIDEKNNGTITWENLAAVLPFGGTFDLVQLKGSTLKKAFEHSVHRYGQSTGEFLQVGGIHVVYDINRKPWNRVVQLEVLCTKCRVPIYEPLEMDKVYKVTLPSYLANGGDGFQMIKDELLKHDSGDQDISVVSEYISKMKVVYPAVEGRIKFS

B1: SB121 rabbit IgG hcAb (Fc fusion)
heavy: QVQLQESGGGLVQAGGSLRLSCAASGSIGSIIAMGWYRQGPGKQRELVARMFTDDGSTNYDDSVKGRFTISRDSAGTTVYLQMNSLKPEDTAVYYCNAQRRWNAYWGPGTQVTVSS
notes: not shown: hinge and Fc-domains of rabbit IgG
B2: SB96 rabbit IgG hcAb (Fc fusion)
heavy: DVQLQASGGGLVQPGGSLRLSCTASGFTLDYLSIGWFRQVPGKEREGVSCINSSGGSTNYADSLKGRLTISRDNAKNTVYLQMNSLKPEDTAVYYCAAHKYYYCSNKVEVFDYWGQGTPVTVSS
notes: VHH fused upstream of hinge and Fc of rabbit IgG; also called Nb-rbIgG hcAb SB96; not shown: hinge and Fc-domains of rabbit IgG
B3: SB116 rabbit IgG hcAb (Fc fusion)
heavy: QVKLQESGGGRVQTGGSLRLSCAASGISFSITTMYWYRQAPGEQRQLVALITDRGNTYYVDSVKGRFTISRDDSKNTVYLQMNDLKPEDTAVYFCNSIPGNDWGQGTQVTVSS
notes: also called SB116-rbFc; dimeric SB116 Fc construct; not shown: hinge and Fc-domains of rabbit IgG
B4: SB139 rabbit IgG hcAb (Fc fusion)
heavy: QVQLQESGGGLVQAGGSLRLSCAASENIFNIYGMGWYRQAPGKLRDLVAKITSGGRTTYADSVKGRFTISGDNAKNTVYLQMNSLKPEDTAVYYCNSYYYWGQGTQVTVSS
notes: as for B1
B5: SB144 rabbit IgG hcAb (Fc fusion)
heavy: QVQLVESGGGLVQAGGSLRLSCAASGRTFSGSTMGWFRQAPGKERAFVAAIRWIGGTAKYGDSVKGRFTISIDNAKNTLYLQMNSLKPEDTAVYYCAATAGGPDYLGGRDIVYDYWGQGTQVTVSS
notes: as for B1

The binders below were run against T1, human CD73 on cells (CD73-transfected …) (assay: flow cytometry, human CD73-expressing cells; competitor: MEDI9447).
Method: (§1) The binding specificities of the purified hcAbs were determined by flow cytometry using HEK cells transiently co-transfected with expression vectors for GFP and either mouse CD73, human CD73 or a control protein (CD39). 1×10⁶ cells were incubated with 10 μl of the Nb-rbIgG hcAb containing HEK-6E cell supernatants for 30 min at 4° C. […] The cells were resuspended in PBS and analyzed by flow cytometry on FACS Canto or FACS Celesta (BD Biosciences, Heidelberg). Data evaluation was conducted using the software FlowJo (Treestar, Stanford, US).
(§2) To evaluate the epitopes on the CD73 protein recognized by different VHHs, representative rabbit IgG hcAbs were binned against a set of human IgG hcAbs, and bound hcAbs were detected with a PE-conjugated anti-rabbit IgG secondary antibody. Cells were pre-incubated with excess human IgG hcAbs for […] at RT to block specific epitopes before addition of rabbit IgG hcAbs as detectors and further incubation for 15 min at RT. Cells were washed, and bound antibodies were detected with PE-conjugated anti-rabbit IgG polyclonal antibody. Cells were washed and analyzed by flow cytometry on a BD-FACS Canto. Data were analyzed using the FlowJo software (Treestar). Lack of blockade by a non-binding control human IgG hcAb served as negative control (unblocked), and blockade of binding with the same VHH carrying human IgG hcAb as the rabbit IgG hcAb used for detection served as positive controls for blocking. Values for blocking were determined by comparing the mean fluorescence intensities (MFIs) of PE staining of transfected cells for unblocked vs blocked rabbit hcAbs using the formula: inhibition (%)=100−(MFI (blocked)/MFI MFI(unblocked)*100). The values were rounded to whole percentages.

| Binder | percent inhibition of binding |
| --- | --- |
| B1 | 74% |
| B2 | 92% |
| B3 | 97% |
| B4 | 73% |

What follows are binders tested against T2, recombinant human CD73 ectodomain (aa …) (assay: BLI (Octet), immobilized Nb-rbIgG hcAb, soluble human CD73 as analyte).
Method: The binding off-rate constants of bivalent hcAbs to human and mouse CD73 protein were determined by […] kinetic analysis on Octet RED96 (ForteBio). Immobilization of rabbit IgG hcAbs on the protein A-biosensor surface was done in HEK-6E cell supernatant, and regeneration of analytes was done with 100 mM Glycin pH=2.5. Recombinant mouse or human CD73 ectodomain was used as analytes and tested at a saturating dose of 200 ng/μl. Sensorgrams were fitted using least square regression in association than dissociation Model in Prism8 (Graphpad).

| Binder | koff |
| --- | --- |
| B5 | 0.00023 s⁻¹ |
| B1 | 0.022 s⁻¹ |
| B2 | 3.9e-05 s⁻¹ |
| B3 | 0.00017 s⁻¹ |
| B4 | 0.046 s⁻¹ |

What follows are binders tested against T1, human CD73 on cells (CD73-transfected …) (assay: flow cytometry, human CD73-expressing cells; competitor: human IgG hcAb SB139).
Method: as §1, §2

| Binder | percent inhibition of binding |
| --- | --- |
| B1 | 0% |
| B2 | -25% |
| B3 | 2% |
| B4 | 50% |

The binders below were run against T1, human CD73 on cells (CD73-transfected …) (assay: flow cytometry, human CD73-expressing cells; competitor: human IgG hcAb SB96).
Method: as §1, §2

| Binder | percent inhibition of binding |
| --- | --- |
| B1 | 53% |
| B2 | 100% |
| B3 | 100% |
| B4 | 76% |

The binders below were run against T1, human CD73 on cells (CD73-transfected …) (assay: flow cytometry, human CD73-expressing cells; competitor: human IgG hcAb SB116).
Method: as §1, §2

| Binder | percent inhibition of binding |
| --- | --- |
| B1 | 75% |
| B2 | 73% |
| B3 | 72% |
| B4 | 75% |

These binders were tested against T1, human CD73 on cells (CD73-transfected …) (assay: flow cytometry, human CD73-expressing cells; competitor: human IgG hcAb SB121).
Method: as §1, §2

| Binder | percent inhibition of binding |
| --- | --- |
| B1 | 69% |
| B2 | -29% |
| B3 | 6% |
| B4 | 3% |

The binders below were run against T1, human CD73 on cells (CD73-transfected …) (assay: flow cytometry, human CD73-expressing cells; competitor: human IgG hcAb SB143).
Method: as §1, §2

| Binder | percent inhibition of binding |
| --- | --- |
| B1 | 85% |
| B2 | 70% |
| B3 | 65% |
| B4 | 77% |

These binders were tested against T3, mouse CD73 on transfected HEK cells (assay: specificity column, binding to human (h) and mouse (m) CD73).
Method: as §1

| Binder | binding result |
| --- | --- |
| B5 | binds |
| B1 | binds |
| B2 | binds |
| B3 | binds |
| B4 | binds |

These binders were tested against T1, human CD73 on cells (CD73-transfected …) (assay: flow cytometry, human CD73-expressing cells; competitor: IPH5301).
Method: as §1, §2

| Binder | percent inhibition of binding |
| --- | --- |
| B1 | 77% |
| B2 | 90% |
| B3 | 94% |
| B4 | 66% |

The binders below were run against T1, human CD73 on cells (CD73-transfected …) (assay: flow cytometry, human CD73-expressing cells; competitor: human IgG hcAb SB141).
Method: as §1, §2

| Binder | percent inhibition of binding |
| --- | --- |
| B1 | 77% |
| B2 | 17% |
| B3 | 47% |
| B4 | 47% |
